Laboratory results published in US20230183353A1.

Legend:
[1] = molecular target: recombinant human FcγRIIIa (Phe) (human) (UniProt P08637); experiment: SPR (ProteOn), receptor immobilised on GLC chip by amine coupling, pH 7.4, 25 C
[2] = molecular target: recombinant human FcγRIIIa (Val) (human) (UniProt P08637); experiment: as above
recombinant human FcγRIIIa (Val) (human), sequence (P08637 17-208 F176V limits assumed): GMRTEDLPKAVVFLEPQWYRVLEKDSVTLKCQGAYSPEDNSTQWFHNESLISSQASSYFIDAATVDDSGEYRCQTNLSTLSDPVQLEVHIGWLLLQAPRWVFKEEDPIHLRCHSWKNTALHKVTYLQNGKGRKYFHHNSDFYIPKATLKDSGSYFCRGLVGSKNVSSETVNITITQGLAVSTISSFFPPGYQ

recombinant human FcγRIIIa (Phe) (human), sequence (P08637 17-208 limits assumed): as the sequence (P08637 17-208 F176V limits assumed) above, with V160F counted along it

Kd [1]: 2.2 µM
Kd [2]: 1.28 µM
Substance: Control molecule representing human IgG1 control (lacking substitutions of the present invention)
